Read-outs that look alike come from different tables or passages of the source.

Experiment [1] has as its target T1, human PD-L2 protein (purchased from AcroBiosystems) (human, UniProt Q9BQ51 20-219, limits assumed, biotinylated in the blocking assays).
T1 construct: Bought soluble protein; also called PD-L2 antigen; biotinylated human PD-L2 protein
T1 sequence (looked up): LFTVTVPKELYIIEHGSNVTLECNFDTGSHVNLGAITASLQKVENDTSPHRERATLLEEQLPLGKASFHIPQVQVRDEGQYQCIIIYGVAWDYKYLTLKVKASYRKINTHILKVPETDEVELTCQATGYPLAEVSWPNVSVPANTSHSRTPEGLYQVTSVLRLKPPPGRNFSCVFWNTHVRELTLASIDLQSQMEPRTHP
Put plainly: BLI (ForteBio), antibody on AHQ sensor, 100 nM PD-L2 antigen, 1:1 model. Here is the method:
(§1) ForteBio affinity determination was carried out according to existing methods (Estep, P et al., High throughput solution-based measurement of antibody-antigen affinity and epitope binning. MAbs, 2013.5(2): p. 270-8). In short, the sensor was equilibrated for 30 min under the line of the analysis buffer, and then the baseline was established after online detection for 60 s. The purified antibody obtained as described above was loaded onto the AhQ sensor online. […] Kinetic analysis was performed using a 1:1 binding model.
(§2) The experimental method was the same as that in Example 1.5.

Experiment [2] deals with T2, human PD-L2 on CHO cells (CHO-hPD-L2 cells) (human, UniProt Q9BQ51 20-273).
T2 construct: whole, on cells; also called CHO-K1-PD-L1/PD-L2
T2 sequence (looked up): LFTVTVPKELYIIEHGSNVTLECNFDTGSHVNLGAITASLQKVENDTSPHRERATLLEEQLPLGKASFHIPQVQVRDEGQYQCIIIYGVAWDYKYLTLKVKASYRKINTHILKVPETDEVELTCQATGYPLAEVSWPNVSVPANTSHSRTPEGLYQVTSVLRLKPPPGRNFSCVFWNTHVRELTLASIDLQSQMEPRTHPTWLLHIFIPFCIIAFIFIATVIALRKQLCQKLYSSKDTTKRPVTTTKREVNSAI
Put plainly: flow cytometry on CHO-hPD-L2 cells, PE anti-human IgG-Fc, median fluorescence intensity (MFI). Here is the method: (§3) The expanded CHO-hPD-L2 cells were adjusted to a cell density of 2×10⁶ cells/ml, and were added to 96-well flow plate at 100 μl/well, and centrifuged for later use. […] The diluted samples were added to the 96-well flow plate with cells at 100 μl/well, incubated at 4° C. for 30 min, and washed twice with PBS. Goat F(ab')2 anti-human IgG-Fc (PE) (purchased from Abcam) diluted 100 times with PBS was added at 100 μl/well, incubated at 4° C. for 30 min, and washed twice with PBS. PBS was added at 100 μl/well to resuspend cells, and detection was performed on a CytoFlex (Bechman) flow cytometer and the corresponding MFI was calculated.

The target of experiment [3] is T1, human PD-L2 protein (purchased from …). Description: flow cytometry blocking assay: antibody pre-incubated with biotinylated human PD-L2 protein (1 ug/ml), binding of PD-L2 to CHO-hPD-1 cells read as MFI (APC). Here is the method: (§4) CHO cells overexpressing human PD-1 (CHO-hPD-1 cells) were generated by transfection of the pCHO1.0 vector (purchased from Invitrogen™) cloning human PD-1 cDNA (purchased from Sino Biological). The expanded CHO-hPD-1 cells were adjusted to a cell density of 2×10⁶ cells/ml, and were added to 96-well flow plate at 100 μl/well, and centrifuged for later use. The purified mutant sample was diluted with PBS and diluted 3 times from […] for 12 points. […] The co-incubation sample was added to the above-mentioned 96-well flow plate with cells 100 μl/well, incubated at 4° C. for 30 min, and washed twice with PBS. APC goat anti-mouse IgG (minimum×reactive) antibody diluted 100 times with PBS (purchased from Biolegend®) was added at 100 μl/well, incubated at 4° C. for 30 min, and washed twice with PBS. PBS was added at 100 μl/well to resuspend cells, and detection was performed on a CytoFlex (Bechman) flow cytometer and the corresponding MFI was calculated.

Experiment [4] addresses T3, human PD-L1 protein (purchased from AcroBiosystems) (human, UniProt Q9NZQ7 19-238, biotinylated in the blocking assay).
T3 construct: Bought soluble protein; also called PD-L1 antigen; biotinylated human PD-L1 protein
Description: BLI (ForteBio), antibody on AHQ sensor, 100 nM PD-L1 antigen, 1:1 model. Here is the method: as §1

Experiment [5] has as its target T1, human PD-L2 protein (purchased from …). Description: BLI (ForteBio), antibody on AHQ sensor, 100 nM PD-L2 antigen, 1:1 model. Here is the method:
as §1
This is another data set of the same source.

In experiment [6] the target is T4, human PD-L1 on CHO cells (CHO-hPD-L1 cells) (human, UniProt Q9NZQ7 19-290).
T4 construct: whole, on cells; also called CHO-K1-PD-L1/PD-L2
T4 sequence (Q9NZQ7 19-290): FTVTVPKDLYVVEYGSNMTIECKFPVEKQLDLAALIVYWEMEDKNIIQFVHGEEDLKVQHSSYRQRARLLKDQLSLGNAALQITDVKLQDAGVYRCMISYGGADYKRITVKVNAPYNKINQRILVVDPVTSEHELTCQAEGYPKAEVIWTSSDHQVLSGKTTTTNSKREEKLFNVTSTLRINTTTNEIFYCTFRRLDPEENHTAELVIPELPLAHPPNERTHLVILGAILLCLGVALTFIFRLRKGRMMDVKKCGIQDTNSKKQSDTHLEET
Description: flow cytometry on CHO-hPD-L1 cells, PE anti-human IgG-Fc, MFI; table under the plot, unit from the concentration axis.

For experiment [7], the target named is T2, human PD-L2 on CHO cells (CHO-hPD-L2 …). Put plainly: flow cytometry on CHO-hPD-L2 cells, PE anti-human IgG-Fc, MFI; table under the plot, unit from the concentration axis.
Experiment [8] addresses T3, human PD-L1 protein (purchased from …). Description: flow cytometry blocking assay: antibody pre-incubated with biotinylated human PD-L1 protein (1 ug/ml), binding of PD-L1 to CHO-hPD-1 cells read as MFI; falling curve, the table under the plot calls the half-maximal concentration EC50; unit from the concentration axis. Here is the method: (§5) The expanded CHO-hPD-1 cells were adjusted to a cell density of 2 ×10^6 cells/ml, and were added to 96-well flow plate at 100 μl/well, and centrifuged for later use. The purified mutant sample was diluted with PBS and diluted 3 times from […] for 12 points.
(§6) 28 purified sample at 4° C. for 30 min. The co-incubation sample was added to the above-mentioned 96-well flow plate with cells at 100 μl/well, incubated at 4° C. for 30 min, and washed twice with PBS. APC goat anti-mouse IgG (minimum×reactivity) antibody diluted 100 times with PBS (purchased from Biolegend®) was added at 100 μl/well, incubated at 4° C. for 30 min, and washed twice with PBS. PBS was added at 100 μl/well to resuspend cells, and detection was performed on a CytoFlex (Bechman) flow cytometer and the corresponding MFI was calculated.

For experiment [9], the target named is T1, human PD-L2 protein (purchased from …). Description: flow cytometry blocking assay: antibody pre-incubated with biotinylated human PD-L2 protein (1 ug/ml), binding of PD-L2 to CHO-hPD-1 cells read as MFI (APC); falling curve, the table under the plot calls the half-maximal concentration EC50; unit from the concentration axis. Here is the method:
as §5, §6

In experiment [10] the target is T2, human PD-L2 on CHO cells (CHO-hPD-L2 …). Put plainly: flow cytometry on CHO-hPD-L2 cells, PE anti-human IgG-Fc, median fluorescence intensity (MFI). Here is the method:
as §3
This is another data set of the same source.

The target of experiment [11] is T1, human PD-L2 protein (purchased from …). Put plainly: flow cytometry blocking assay: antibody pre-incubated with biotinylated human PD-L2 protein (1 ug/ml), binding of PD-L2 to CHO-hPD-1 cells read as MFI. Here is the method:
as §4

Experiment [12] concerns the target T4, human PD-L1 on CHO cells (CHO-hPD-L1 …). Description: flow cytometry on CHO-hPD-L1 cells, PE anti-human IgG-Fc, median fluorescence intensity (MFI).
Experiment [13] concerns the target T3, human PD-L1 protein (purchased from …). Description: BLI (ForteBio), antibody on AHQ sensor, 100 nM PD-L1 antigen, 1:1 model. Here is the method:
as §1, §2
The source holds these as a separate data set.

T3 sequence (Q9NZQ7 19-238 limits assumed): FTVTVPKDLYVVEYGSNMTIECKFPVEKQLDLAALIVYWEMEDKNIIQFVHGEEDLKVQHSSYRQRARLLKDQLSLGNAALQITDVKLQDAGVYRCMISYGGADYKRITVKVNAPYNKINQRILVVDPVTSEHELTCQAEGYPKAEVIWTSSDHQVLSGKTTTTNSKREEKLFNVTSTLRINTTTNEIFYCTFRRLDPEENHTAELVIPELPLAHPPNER

B1: HZ-D-Na-96-3 (antibody, V domains shown)
VH: EVQLVESGGGLVQPGGSLRLSCAASGRTFSSMTIGWFRQAPGKEREFVSGIGWTSGLTVYADSVKGRFTISRDNAKNSMYLQMNSLKPEDTAVYYCAADSMNRGQFDYWGQGTLVTVSS
notes: Humanized anti-PD-L2 heavy chain antibody: VHH linked to human IgG1 (LALA) Fc; the junction is not described
For B1, in [1], binding was characterised by a dissociation constant (Kd) of 1.99 nM, the off-rate (koff) was found to be 0.00059 s⁻¹ and the kon turned out to be 297000 M⁻¹ s⁻¹. Moreover, the “EC50 (read off the curve)” value in experiment [2] is about 3 nM. Besides, in experiment [3], the “IC50 (read off the curve)” value was about 2 nM.

B2: Bi-203-204 (bispecific antibody, human IgG1, kappa, L234A L235A, V domains shown)
V domain 1: QVQLVESGGGLVKPGGSLRLSCAASGHTFIIYAIGWFRQAPGKGLEFVATINWSGSMTNYADSVKGRFTISRDNAKNTVYLQMNSLKPDDTAVYYCAAYVGATISTAHSRYDYWGQGTLVTVSS
V domain 2: EVQLVESGGGLVQPGGSLRLSCAASGRTFSSMTIGWFRQAPGKGLEFVSGIGWTSGLTVYADSVKGRFTISRDNAKNSMYLQMNSLRAEDTAVYYCAADSMNRGQFDYWGQGTLVTVSS
notes: Formula III + IV format
With B2, the dissociation constant (Kd) in experiment [4] was 1.59 nM; in experiment [5], 1.14 nM. For the same molecule, the off-rate (koff) in experiment [4] is 0.000405 s⁻¹; in [5], 0.000424 s⁻¹. Also, the kon amounted to 254000 M⁻¹ s⁻¹ in [4] and 372000 M⁻¹ s⁻¹ in experiment [5]. Moreover, the half-maximal effective concentration (EC50) in [6] is 3.74 nM; in experiment [7], 1.25 nM; in experiment [8] it was 12.3 nM; in experiment [9] it was 8.35 nM.

B3: HZ-D-Na-96-2 (antibody, V domains shown)
VH: EVQLVESGGGLVQPGGSLRLSCAASGRTFSSMTIGWFRQAPGKGLEFVSGIGWTSGLTVYADSVKGRFTISRDNAKNSLYLQMNSLKPEDTAVYYCAADSMNRGQFDYWGQGTLVTVSS
notes: as for B1
In experiment [1], B3 came in with an equilibrium dissociation constant (Kd) of 1.58 nM, a koff of 0.000512 s⁻¹ and a kon of 323000 M⁻¹ s⁻¹. Further, the “IC50 (read off the curve)” value in experiment [3] was about 2 nM.

B4: D-Na-96 (antibody, V domains shown)
VH: QVQLVESGGGLVQAGASLRLSCAASGRTFSSMTIGWFRQTPGKEREFVAGIGWTSGLTVYADSVKGRFTISRDNAEKTMYLHMNNLKPEDTSVYYCAADSMNRGQFDYWGQGTQVTVSS
notes: Anti-PD-L2 heavy chain antibody: VHH linked to human IgG1 (LALA) Fc; the junction is not described
For the molecule B4, the dissociation constant Kd is 2.5 nM in experiment [1] and 1.27 nM in [5]. In addition, the koff turned out to be 0.000655 s⁻¹ in [1] and 0.0011 s⁻¹ in experiment [5]. Moreover, the on-rate (kon) in experiment [1] came out at 262000 M⁻¹ s⁻¹; in experiment [5], 862000 M⁻¹ s⁻¹. The results for the concentration for a half-maximal effect (EC50 (read off the curve)) in [10] and in experiment [2] were about 50 nM and about 6 nM, respectively. Also, the “IC50 (read off the curve)” value is about 9 nM in experiment [11] and about 2 nM in experiment [3].

B5: HZ-D-Na-96-1 (antibody, V domains shown)
VH: EVQLVESGGGLVQPGGSLRLSCAASGRTFSSMTIGWFRQAPGKGLEFVSGIGWTSGLTVYADSVKGRFTISRDNAKNSMYLQMNSLRAEDTAVYYCAADSMNRGQFDYWGQGTLVTVSS
notes: as for B1
As to B5, in experiment [1], the affinity, expressed as Kd, was 1.68 nM; the koff amounted to 0.000577 s⁻¹; the kon worked out at 344000 M⁻¹ s⁻¹. In experiment [5], this molecule gave a Kd of 1.11 nM, a koff of 0.0004 s⁻¹ and a kon of 360000 M⁻¹ s⁻¹. For the same molecule, the 50% effective concentration (EC50 (read off the curve)) in [2] is about 4 nM. The EC50 in [7] is 1.75 nM. In [3], the “IC50 (read off the curve)” value is about 2 nM. Moreover, the EC50 in [9] was 13.4 nM.

B6: K-Yr-13&14-02 (antibody, V domains shown)
VH: QVQLVESGGGLVKAGDSLRLSCAASGHTFIIYAIGWFRQAPGKEREFVATINWSGSMTNYTDSVKGRFTISRDNAKNTVYLQMNSLKPDDTAIYYCAAYVGATISTAHSRYDYWGQGTQVTVSS
notes: Anti-PD-L1 heavy chain antibody: VHH linked to human IgG1 (LALA) Fc; the junction is not described
For B6, in experiment [4], binding was put at a Kd of 0.96 nM, the off-rate constant (koff) came to 0.000561 s⁻¹ and the on-rate constant (kon) is 585000 M⁻¹ s⁻¹. Moreover, the “EC50 (read off the curve)” value in experiment [12] was about 8 nM.

B7: HZ-K-Yr-13&14-02-3 (antibody, V domains shown)
VH: QVQLVESGGGLVKPGGSLRLSCAASGHTFIIYAIGWFRQAPGKGLEFVATINWSGSMTNYADSVKGRFTISRDNAKNTVYLQMNSLKPDDTAVYYCAAYVGATISTAHSRYDYWGQGTLVTVSS
notes: Humanized anti-PD-L1 heavy chain antibody: VHH linked to human IgG1 (LALA) Fc; the junction is not described; also called HZ-K-13&14-02-3
In experiment [13], B7 returned a Kd of 0.223 nM, a koff of 9.92e-05 s⁻¹ and an on-rate (kon) of 445000 M⁻¹ s⁻¹. In experiment [4], this molecule showed a Kd of 1.38 nM, an off-rate constant (koff) of 0.000309 s⁻¹ and a kon of 224000 M⁻¹ s⁻¹. In addition, the half-maximal effective concentration (EC50 (read off the curve)) in [12] is about 10 nM. Moreover, the response in experiment [6] was half-maximal at 2.55 nM (EC50). For the same molecule, the EC50 in [8] is 5.17 nM.

The values are drawn from US12600782 (BIOTHEUS, dated 2026).
